The text below walks through data of paper PMC7583250, “Type III ATP synthase is a symmetry-deviated dimer that induces membrane curvature through tetramerization” (Nature Communications, 2020).

One data set addresses T1, ATPTT1 (Tetrahymena thermophila, UniProt I7LVQ8).
T1 construct: gene TTHERM_00137990; 55-kDa Fo-wing subunit of native mitochondrial ATP synthase dimer, purified in digitonin from T. thermophila mitochondria
T1 sequence (I7LVQ8 1-480): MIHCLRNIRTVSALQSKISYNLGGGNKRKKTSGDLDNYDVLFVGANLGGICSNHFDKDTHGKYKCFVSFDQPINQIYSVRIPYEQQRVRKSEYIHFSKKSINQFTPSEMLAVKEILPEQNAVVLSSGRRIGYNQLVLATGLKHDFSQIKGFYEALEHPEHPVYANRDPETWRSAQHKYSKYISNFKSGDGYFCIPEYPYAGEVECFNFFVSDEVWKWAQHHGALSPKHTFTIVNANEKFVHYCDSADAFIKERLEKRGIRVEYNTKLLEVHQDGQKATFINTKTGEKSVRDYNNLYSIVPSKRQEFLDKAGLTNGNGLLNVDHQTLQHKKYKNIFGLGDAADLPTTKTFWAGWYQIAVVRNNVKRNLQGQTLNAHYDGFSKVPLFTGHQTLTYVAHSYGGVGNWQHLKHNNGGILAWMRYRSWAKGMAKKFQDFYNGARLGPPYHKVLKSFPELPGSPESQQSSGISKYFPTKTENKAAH
Briefly: cryo-EM structure. Type of data set: binding. The settings on record: co-purified native cofactor in pocket of two Rossmann folds; oxidation state not stated.

Data set [1] concerns the target F1 inhibitor protein IF1 (Tetrahymena thermophila (endogenous in its mitochondria)). Briefly: cryo-EM structure; native IF1-inhibited ATP synthase dimer purified from T. thermophila mitochondria in digitonin (25 mM Hepes/KOH pH 7.5, 25 mM KCl, 5 mM MgCl2, 0.1% w/v digitonin); 2.7 Å overall, masked refinements 2.5-3.1 Å.
Data set [2] has as its target type III mitochondrial F1Fo-ATP synthase (monomer) in complex with IF1 (Tetrahymena thermophila (endogenous in its mitochondria)) (UniProt Q951C1). The data set is described as above.
The target is the same in data set [3]. The data set is described as follows: cryo-EM structure; native ATP synthase tetramer particles of the same sample; 3.3 Å overall, Fo tetramer membrane region 3.1 Å; two dimer models refined into the Fo-tetramer map.
Data set [4] deals with the molecule itself. Briefly: cryo-EM structure; native IF1-inhibited ATP synthase dimer purified from T. thermophila mitochondria in digitonin (25 mM Hepes/KOH pH 7.5, 25 mM KCl, 5 mM MgCl2, 0.1% w/v digitonin); 2.7 Å overall, masked refinements 2.5-3.1 Å.

For `NC(=O)c1ccc[n+]([C@@H]2O[C@H](COP(=O)([O-])OP(=O)(O)OC[C@H]3O[C@@H](n4cnc5c(N)ncnc54)[C@H](O)[C@@H]3O)[C@@H](O)[C@H]2O)c1` [NAD], on ATPTT1, the cryo-EM structure result was “in ATPTT1 the binding pocket formed by two Rossmann folds contains the co-factor”. As a reminder, the stoichiometry N is a count of units in the complex or per binding partner. As to “F1 inhibitor protein IF1 (natural protein)”, the stoichiometry N in data set [1] stood at 2. For “type III mitochondrial F1Fo-ATP synthase (monomer) in complex with IF1 (from UniProt Q951C1 1-446)”, the stoichiometry N in data set [2] was found to be 2; in data set [3], 4.

B1: ATP synthase subunit-a (natural protein, UniProt Q951C1 1-446, looked up)
chain: MGRENVLPVHNDVYEDFVFTTPYFQPESTFKSVPKLFSDILLGGVEWVYTTSESVLAYDYKLWYLWSGVSNLDESFDMFFNQYWALSLSTSVFQLFYAVILDRYLSVLFQNTPYTNDWFRMMLHSKETALIWLYHPELSWHINGLNQFFTYFYGGILEFVYFDKSNPDMCILVHTLWIHLLILFLIFTGFVTILFSFYGNPNTEENTIDSDYLAASGTVEAEKEITSIDDYLGLVFAIAYVFGVFFYVHGWTSMLSHAVLLLSCYSIIIMFLFILGMPTLLLYDFGIFFLAYLKGAGKYISSVAEMMFDYTACLVFYIRILAQWIRVVLMVVTFISLSHYVSDFDITNSALIGSENQSDSMNELNTNFSMTYYILTVLPGKFIYWIYEILHTFFVVCSQFVAFFAIVFWLFLFLYTFFIIEKHEDFFSKKREERKKKLKELWNLKN
notes: ATP synthase subunit a, Tetrahymena thermophila; overall length of 446 amino acids, with 170- and 38-amino acid N- and C-terminal extensions; source: endogenous, purified from T. thermophila mitochondria within the ATP synthase (digitonin, sucrose cushion, Superose 6)
In the case of B1, the binding result in data set [4] is given as “binds”.
